The record followed here is the Immune Epitope Database (IEDB).

One experiment concerns the target HLA-B*57:01. Description: IEDB peptide-MHC binding, purified MHC/competitive/radioactivity; filed as Kd, often an IC50 or EC50 that approximates it; ≥ and ≤ were set here for values at or beyond the usual limits of such assays.
Experiment [1] has as its target HLA-B*08:01. The experiment is described as above.
Experiment [2] deals with HLA-A*03:01. Nature of the experiment: IEDB peptide-MHC binding, purified MHC/competitive/fluorescence; filed as Kd, often an IC50 or EC50 that approximates it; ≥ and ≤ were set here for values at or beyond the usual limits of such assays.
Another experiment addresses HLA-A*24:02. Nature of the experiment: IEDB peptide-MHC binding, purified MHC/competitive/fluorescence; ≥ and ≤ were set here for values at or beyond the usual limits of such assays.
Experiment [3] addresses HLA-A*11:01. Described as above.
In a further experiment the target is HLA-A*32:01. Nature of the experiment: IEDB peptide-MHC binding, purified MHC/competitive/radioactivity; filed as Kd, often an IC50 or EC50 that approximates it; ≥ and ≤ were set here for values at or beyond the usual limits of such assays. The note with it: source organism: Vaccinia virus WR.
The target of experiment [4] is HLA-A*02:01. Nature of the experiment: IEDB peptide-MHC binding, purified MHC/direct/fluorescence; filed as Kd, often an IC50 or EC50 that approximates it; ≥ and ≤ were set here for values at or beyond the usual limits of such assays.
The target of experiment [5] is HLA-A*03:01. The description is as above.
Experiment [6] has as its target HLA-A*11:01. The experiment is described as above.
A further experiment addresses HLA-A*24:03. The experiment is described as above. The settings on record: source organism: Giardia lamblia ATCC 50803.
The next experiment deals with HLA-A*26:01. The description is as above.
A further experiment deals with HLA-A*31:01. The experiment is described as above.
The next experiment has as its target HLA-A*69:01. The experiment is described as above.
For another experiment, the target named is HLA-B*07:02. Described as above.
For experiment [7], the target named is HLA-B*08:01. The experiment is described as above.
The target in experiment [8] is HLA-B*15:01. The experiment is described as above.
A further experiment deals with HLA-B*27:05. The experiment is described as above.
The target of another experiment is HLA-B*40:01. The description is as above.
The target in another experiment is HLA-B*44:02. Described as above.
For another experiment, the target named is HLA-B*18:01. Described as above. The settings on record: source organism: dengue virus type 1.
Experiment [9] deals with HLA-A*02:01. Description: IEDB peptide-MHC binding, purified MHC/competitive/fluorescence; ≥ and ≤ were set here for values at or beyond the usual limits of such assays.
The next experiment has as its target HLA-A*01:01. Nature of the experiment: IEDB peptide-MHC binding, purified MHC/direct/fluorescence; filed as Kd, often an IC50 or EC50 that approximates it; ≥ and ≤ were set here for values at or beyond the usual limits of such assays. The note with it: source organism: Shigella flexneri.
For the next experiment, the target named is HLA-B*58:01. The description is as above. The settings on record: source organism: Shigella flexneri.
Experiment [10] concerns the target HLA-A*02:01. Nature of the experiment: IEDB peptide-MHC binding, purified MHC/competitive/fluorescence; filed as Kd, often an IC50 or EC50 that approximates it; ≥ and ≤ were set here for values at or beyond the usual limits of such assays. The note with it: source organism: Yersinia bercovieri ATCC 43970.
The target in experiment [11] is HLA-B*15:01. The description is as above. The note with it: source organism: Yersinia bercovieri ATCC 43970.
In the next experiment the target is HLA-B*39:01. Described as above. The note with it: source organism: Yersinia bercovieri ATCC 43970.
[12] abbreviates: source organism: Vaccinia virus WR.
[13] abbreviates: source organism: Vaccinia virus Copenhagen.
Setting [14] is: source organism: Sudan ebolavirus.
Setting [15] is: source organism: Dengue virus 1 Brazil/97-11/1997.
The mark [16] stands for this setting: source organism: Giardia lamblia ATCC 50803.
The mark [17] stands for this setting: source organism: Zaire ebolavirus.
Setting [18] is: source organism: Dengue virus 3 Martinique/1243/1999.
Where [19] appears, read: source organism: Shigella flexneri.

As usually defined, the Kd is the equilibrium constant for the complex coming apart. Usually IC50 stands for the concentration at which inhibition is half-maximal.

For the sequence KTSLCLMMIL, the dissociation constant Kd with HLA-B*57:01 (source organism: Dengue virus 3 Sri Lanka/1266/2000) came to 0.00968 µM.
As to LNLSKFMMV, the Kd with HLA-B*08:01 [1] (setting [12]) was 0.102 µM.
Turning to MKMKKKTWL, the Kd with HLA-B*08:01 [1] (source organism: Dengue virus 4 Philippines/H241/1956) was determined as 0.0629 µM.
Consider MLILNFCKL, for which the Kd with HLA-B*08:01 [1] (setting [13]) came out at 0.00391 µM.
Take MTIASVPTSR: the Kd with HLA-A*03:01 [2] (source organism: Influenza A virus (A/equine/California/8560/2002(H3N8))) was 1.01 µM.
In turn, NFAEGVIAF displayed an IC50 in the experiment with HLA-A*24:02 (setting [14]) of 4.18 µM.
Consider NFMQRIISL, for which, in the experiment with HLA-B*08:01 [1] (setting [12]), the Kd was 1.49 µM.
In turn, NNIGIEYSK registered an IC50 in the experiment with HLA-A*11:01 [3] (source organism: Vaccinia virus) of at least 173 µM.
For the sequence RASFIEVKTC, the Kd with HLA-B*57:01 (setting [15]) was 0.0537 µM.
As for RSMYRIPPF, the values for the Kd in the experiment with HLA-A*32:01 and in the experiment with HLA-B*08:01 [1] (setting [12]) were 0.000726 µM and 0.157 µM, respectively.
In the case of RTDPVIDNI, the Kd with HLA-A*02:01 [4] (setting [16]) was at least 20 µM; with HLA-A*03:01 [5] (setting [16]) it was at least 20 µM; with HLA-A*11:01 [6] (setting [16]), at least 20 µM; in the experiment with HLA-A*24:03, 2.75 µM; in the experiment with HLA-A*26:01 (setting [16]) it was at least 20 µM; in the experiment with HLA-A*31:01 (setting [16]), at least 20 µM. Besides, the Kd with HLA-A*69:01 (setting [16]), with HLA-B*07:02 (setting [16]), with HLA-B*08:01 [7] (setting [16]), with HLA-B*15:01 [8] (setting [16]), in the experiment with HLA-B*27:05 (setting [16]) and with HLA-B*40:01 (setting [16]) was at least 20 µM in each case. This sequence also had a Kd with HLA-B*44:02 (setting [16]) of at least 20 µM.
In turn, RWGGTCRIL registered an IC50 with HLA-A*24:02 (setting [14]) of 0.23 µM.
For SEHTGREIV, the figures for the Kd with HLA-B*18:01 and with HLA-B*44:02 (source organism: dengue virus type 1) were 2.04 µM and at least 20 µM, respectively.
With SETAGNNNT, the IC50 with HLA-A*02:01 [9] (setting [17]) was at least 98.4 µM; with HLA-A*11:01 [3] (setting [17]) it was at least 363 µM.
Turning to SFQQTNAMV, the values for the IC50 with HLA-A*02:01 [9] (setting [17]) and in the experiment with HLA-A*24:02 (setting [17]) were 31.7 µM and 18.1 µM, respectively.
As for SILSSFFSL, the Kd with HLA-B*08:01 [1] (setting [12]) was determined as 0.229 µM.
Take SNTTGKLIW: the IC50 with HLA-A*24:02 (setting [17]) was 9.97 µM.
As for VLKPSVIEE, in the experiment with HLA-A*11:01 [3] (setting [12]), the IC50 was at least 257 µM.
Turning to VLRTKITSL, in the experiment with HLA-B*08:01 [1] (setting [12]), the Kd was 0.00092 µM.
Turning to VMAVGLVSIL, the Kd with HLA-B*08:01 [1] (setting [18]) was 0.154 µM.
For the sequence VMLIGIEIL, the IC50 in the experiment with HLA-A*02:01 [9] (setting [12]) is 0.161 µM; with HLA-A*24:02 (setting [12]), 37.6 µM.
In the case of VPFIRNPNK, the IC50 with HLA-A*11:01 [3] (setting [12]) is 47.2 µM.
Turning to VVISKKDTY, the equilibrium dissociation constant (Kd) with HLA-A*01:01 is at least 20 µM; with HLA-A*02:01 [4] (setting [19]) it was at least 20 µM; with HLA-A*03:01 [5] (setting [19]), at least 20 µM; in the experiment with HLA-A*11:01 [6] (setting [19]) it was 2.96 µM; with HLA-A*26:01 (setting [19]), 6.93 µM; in the experiment with HLA-A*31:01 (setting [19]) it was 5.5 µM. For the same sequence, the Kd with HLA-A*69:01 (setting [19]), in the experiment with HLA-B*07:02 (setting [19]), with HLA-B*08:01 [7] (setting [19]), with HLA-B*15:01 [8] (setting [19]), with HLA-B*27:05 (setting [19]) and in the experiment with HLA-B*40:01 (setting [19]) was at least 20 µM throughout. Further, the Kd with HLA-B*44:02 (setting [19]) and with HLA-B*58:01 was at least 20 µM throughout.
The sequence VVLDLFARK had a Kd in the experiment with HLA-A*03:01 [2] (source organism: Shigella flexneri 2a str. 301) of 0.175 µM.
Turning to WCRLKFHIV, in the experiment with HLA-B*08:01 [1] (setting [13]), the Kd is 0.0819 µM.
For the sequence WFSRENSYSG, the Kd in the experiment with HLA-B*57:01 (setting [18]) worked out at 7 µM.
As for WQMFMKVTV, the Kd with HLA-A*02:01 [10] is 0.0156 µM; with HLA-B*15:01 [11], 1.29 µM; in the experiment with HLA-B*39:01 it was 0.389 µM.
Take WTSGASTSQE: the Kd with HLA-B*57:01 (setting [15]) came to 0.206 µM.
